Non-standard residues stand in square brackets, D forms with d. Phe(4-NO2) = N[C@@H](Cc1ccc([N+](=O)[O-])cc1)C(=O)O
Molecular target: T1, acceptor hexapeptide Ac-DQNATF{4NO2}-NH2 (SMILES CC(=O)N[C@@H](CC(=O)O)C(=O)N[C@@H](CCC(N)=O)C(=O)N[C@@H](CC(N)=O)C(=O)N[C@@H](C)C(=O)N[C@H](C(=O)N[C@@H](Cc1ccc([N+](=O)[O-])cc1)C(N)=O)[C@@H](C)O)
T1 construct: also called DQNATF{pNO2}; acceptor peptide
T1 peptide: Ac-DQNAT[Phe(4-NO2)]-NH2
Assay: calculated from the X-ray co-crystal structure with areaimol

B1: oligosaccharyltransferase (OST) PgIB from Campylobacter lari, full length, with C-terminal decahistidine affinity tag (expressed from pSF2, purified in DDM and … (enzyme)
chain: MELQQNFTDNNSIKYTCILILIAFAFSVLCRLYWVAWASEFYEFFFNDQLMITTNDGYAFAEGARDMIAGFHQPNDLSYFGSSLSTLTYWLYSILPFSFESIILYMSTFFASLIVVPIILIAREYKLTTYGFIAALLGSIANSYYNRTMSGYYDTDMLVLVLPMLILLTFIRLTINKDIFTLLLSPIFIMIYLWWYPSSYSLNFAMIGLFGLYTLVFHRKEKIFYLAIALMIIALSMLAWQYKLALIVLLFAIFAFKEEKINFYMIWALIFISISILHLSGGLDPVLYQLKFYVFKASDVQNLKDAAFMYFNVNETIMEVNTIDPEVFMQRISSSVLVFILSFIGFILLCKDHKSMLLALPMLALGFMALRAGLRFTIYAVPVMALGFGYFLYAFFNFLEKKQIKLSLRNKNILLILIAFFSISPALMHIYYYKSSTVFTSYEASILNDLKNKAQREDYVVAWWDYGYPIRYYSDVKTLIDGGKHLGKDNFFSSFVLSKEQIPAANMARLSVEYTEKSFKENYPDVLKAMVKDYNQTSAKDFLESLNDKNFKFDTNKTRDVYIYMPYRMLRIMPVVAQFANTNPDNGEQEKSLFFSQANAIAQDKTTGSVMLDNGVEIINDFRALKVEGASIPLKAFVDIESITNGKFYYNEIDSKAQIYLLFLREYKSFVILDESLYNSAYIQMFLLNQYDQDLFEQVTNDTRAKIYRLKR
notes: Residues 283-306, 605-607 and the His tag are disordered in the structure; also called C. lari PgIB; PglB
contact surface of the peptide buried at the interface of the TM and periplasmic domains: ~80%

Source: patent publication US20140100836A1 (ETH ZURICH, published 2014)
